Assay results from the supplement of paper PMC10724198.
± gives the standard deviation of the averaged measurements.

What was measured:
Saccharomyces cerevisiae [1] = experiment: protein stability index of tFT-peptide fusion (C-terminal peptide) (PSI (0-1 scale)); higher = more stable (slower turnover)
Procedure: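 MPS profiling in S. cerevisiae of the tFT-X12 degron library: putative degron peptides plus stable controls, 12 aa, fused to the C-terminus of a sfGFP-mCherry timer. Cells are FACS-sorted into 8 mCherry/sfGFP bins and deep-sequenced. PSI runs from 0 (unstable) to 1 (stable). Backgrounds are wild type, das1Δ and doa10Δ at 30 °C, and wild type, das1Δ, cdc34-1 and cdc53-1 at 37 °C; 2-3 technical replicates each.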

Saccharomyces cerevisiae [2] = experiment: as above; details: genetic background: wild type; temperature: 30 C
[3] = genetic background: cdc34-1, temperature: 37 C
[4] = genetic background: cdc53-1, temperature: 37 C
[5] = genetic background: das1 deletion, temperature: 30 C
[6] = genetic background: das1 deletion, temperature: 37 C
[7] = genetic background: doa10 deletion, temperature: 30 C
[8] = genetic background: wild type, temperature: 30 C
[9] = genetic background: wild type, temperature: 37 C
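Note: PSI is a weighted mean of sequencing reads over stability bins, variants kept only with over 10 reads, mCherry proximal and sfGFP distal, peptide attached via GGGS linker.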

Sequence	protein stability index (Saccharomyces cerevisiae [1]; [3])	protein stability index (Saccharomyces cerevisiae [1]; [4])	protein stability index (Saccharomyces cerevisiae [1]; [5])	protein stability index (Saccharomyces cerevisiae [1]; [6])	protein stability index (Saccharomyces cerevisiae [1]; [7])	protein stability index (Saccharomyces cerevisiae [1]; [8])	protein stability index (Saccharomyces cerevisiae [1]; [9])	protein stability index (Saccharomyces cerevisiae [2])
LHLTFRLAVLYY	0.3205 ± 0.002	0.355 ± 0.0097	0.293 ± 0.037	0.395 ± 0.03	0.317 ± 0.029	0.275 ± 0.021	0.371 ± 0.039	0.338 ± 0.032
LIIVFGFTSILR	0.441 ± 0.02	0.572 ± 0.018	0.36 ± 0.043	0.526 ± 0.018	0.355 ± 0.015	0.328 ± 0.037	0.509 ± 0.048	0.419 ± 0.093
LIPFPGFFILLT	0.244 ± 0.021	0.13 ± 0.0096	0.277 ± 0.021	0.37 ± 0.046	0.49 ± 0.023	0.28 ± 0.05	0.315 ± 0.054	0.436 ± 0.0094
LISRGNRALFCI	0.678 ± 0.044	0.739 ± 0.013	0.589 ± 0.017	0.755 ± 0.029	0.204 ± 0.015	0.224 ± 0.03	0.482 ± 0.016	0.314 ± 0.02
LLAREILVIVAV	0.181 ± 0.0035	0.229 ± 0.017	0.207 ± 0.032	0.32 ± 0.017	0.166 ± 0.0048	0.204 ± 0.015	0.271 ± 0.0034	0.307 ± 0.0051
LLCLAVVLWFVV	0.216 ± 0.035	0.338 ± 0.019	0.239 ± 0.031	0.4051 ± 0.0011	0.212 ± 0.012	0.241 ± 0.024	0.3362 ± 0.0005	0.307 ± 0.03
LLCSPPPLTVPA	0.394 ± 0.044	0.4424 ± 0.00065	0.324 ± 0.045	0.478 ± 0.017	0.275 ± 0.0087	0.327 ± 0.034	0.44 ± 0.0091	0.454 ± 0.025
LLFVLWLSFFVL	0.3135 ± 0.0016	0.384 ± 0.074	0.272 ± 0.03	0.449 ± 0.012	0.239 ± 0.0027	0.247 ± 0.034	0.382 ± 0.04	0.346 ± 0.031
LLGDFAVLTCVF	0.468 ± 0.049	0.496 ± 0.039	0.372 ± 0.024	0.4825 ± 0.0011	0.343 ± 0.0054	0.377 ± 0.027	0.465 ± 0.022	0.453 ± 0.0086
LLGGFAAFWRIL	0.631 ± 0.061	0.713 ± 0.0012	0.618 ± 0.012	0.753 ± 0.014	0.135 ± 0.015	0.15 ± 0.02	0.297 ± 0.026	0.226 ± 0.06
LLLFLHILRYVF	0.541 ± 0.026	0.551 ± 0.015	0.417 ± 0.028	0.581 ± 0.046	0.398 ± 0.025	0.368 ± 0.016	0.529 ± 0.088	0.414 ± 0.026
LLLFLHSTLTCR	0.474 ± 0.056	0.543 ± 0.01	0.408 ± 0.035	0.618 ± 0.018	0.383 ± 0.011	0.411 ± 0.02	0.558 ± 0.022	0.49 ± 0.011
LLLLASLFFRLA	0.522 ± 0.023	0.595 ± 0.01	0.467 ± 0.031	0.614 ± 0.03	0.177 ± 0.011	0.194 ± 0.015	0.37 ± 0.028	0.3 ± 0.016
LLLPVFLVFSVS	0.295 ± 0.046	0.417 ± 0.005	0.269 ± 0.037	0.482 ± 0.012	0.2258 ± 0.0016	0.256 ± 0.03	0.47 ± 0.058	0.326 ± 0.034
LLLSLLVLRFFL	0.37 ± 0.043	0.309 ± 0.007	0.356 ± 0.047	0.536 ± 0.033	0.5037 ± 0.0014	0.357 ± 0.028	0.501 ± 0.019	0.423 ± 0.027
LLMPLLLHSLVW	0.354 ± 0.021	0.396 ± 0.012	0.308 ± 0.019	0.455 ± 0.0014	0.308 ± 0.0067	0.335 ± 0.0096	0.434 ± 0.024	0.409 ± 0.005
LLPSNFLLLVGV	0.219 ± 0.051	0.204 ± 0.011	0.217 ± 0.03	0.325 ± 0.014	0.208 ± 0.012	0.231 ± 0.023	0.2857 ± 0.0024	0.289 ± 0.032
LMIVSVRLLFFL	0.229 ± 0.049	0.39 ± 0.0024	0.232 ± 0.029	0.419 ± 0.015	0.1617 ± 0.00049	0.172 ± 0.019	0.282 ± 0.014	0.2661 ± 0.002
LPAICFWCVLVG	0.0778 ± 0.014	0.136 ± 0.00061	0.164 ± 0.025	0.273 ± 0.035	0.133 ± 0.024	0.162 ± 0.04	0.21 ± 0.013	0.201 ± 0.0059
LPNLPPTSPERH	0.638 ± 0.0034	0.734 ± 0.015	0.652 ± 0.021	0.7046 ± 0.0062	0.6558 ± 0.0059	0.659 ± 0.015	0.703 ± 0.0097	0.663 ± 0.33
LPPSPPCQSPAL	0.667 ± 0.021	0.716 ± 0.012	0.672 ± 0.015	0.728 ± 0.012	0.681 ± 0.03	0.667 ± 0.019	0.685 ± 0.013	0.743 ± 0.018
LPPYPPPVPILI	0.449 ± 0.0069	0.455 ± 0.021	0.362 ± 0.031	0.519 ± 0.0006	0.322 ± 0.0038	0.39 ± 0.026	0.489 ± 0.0053	0.493 ± 0.017
LPSLRPPPCIRA	0.4441 ± 0.002	0.473 ± 0.013	0.36 ± 0.038	0.54 ± 0.02	0.332 ± 0.041	0.345 ± 0.015	0.513 ± 0.014	0.48 ± 0.018
LQYSKALAVICG	0.218 ± 0.034	0.264 ± 0.027	0.235 ± 0.041	0.367 ± 0.01	0.19 ± 0.017	0.221 ± 0.033	0.317 ± 0.023	0.374 ± 0.05
LRALGPRIYRIS	0.661 ± 0.076	0.747 ± 0.025	0.645 ± 0.015	0.747 ± 0.016	0.194 ± 0.0089	0.199 ± 0.012	0.417 ± 0.016	0.317 ± 0.035
LRLFIFLLFSVF	0.246 ± 0.025	0.282 ± 0.023	0.268 ± 0.034	0.39 ± 0.012	0.19 ± 0.0081	0.175 ± 0.015	0.249 ± 0.013	0.198 ± 0.013
LSFFFWFIFSLC	0.475 ± 0.013	0.492 ± 0.053	0.429 ± 0.028	0.5328 ± 0.0043	0.344 ± 0.035	0.325 ± 0.0039	0.443 ± 0.027	0.376 ± 0.019
LSLFCFFLLVLF	0.203 ± 0.025	0.224 ± 0.021	0.272 ± 0.047	0.332 ± 0.011	0.305 ± 0.0094	0.206 ± 0.03	0.288 ± 0.0084	0.2279 ± 0.0013
LSPLPSPLILVV	0.116 ± 0.08	0.16 ± 0.021	0.201 ± 0.0086	0.228 ± 0.0065	0.14761 ± 5.3e-05	0.191 ± 0.034	0.182 ± 0.022	0.284 ± 0.014
LSRELRFVGFYH	0.637 ± 0.07	0.751 ± 0.019	0.656 ± 0.017	0.717 ± 0.025	0.222 ± 0.004	0.229 ± 0.054	0.517 ± 0.043	0.318 ± 0.066
